Here are results for 7 molecules from patent US20240109974A1 (SHANDONG SIMCERE BIOPHARMACEUTICAL, published 2024).

To fix the notation:
B1: 224-Hu1 (antibody, V domains shown)
VH: QVQLVQSGAEVKKPGASVKVSCKASGFNNKDIYMHWVRQAPGQGLEWIGRIDPATGNTKHDPKFQDRVTMTSDTSTNTVYMELSSLRSEDTAVYYCARSPYGDFGAMDYWGQGTLVTVSS
VL: DIQMTQSPSSLSASVGDRVTITCTASSSVSSNYLHWYQQKPGKAPKLWIYSTSNLPSGVPSRFSGSGSGTDFTLTISSLQPEDFATYYCHQYHRSPWTFGQGTKVEIK
notes: Humanized form of #224; also called VH8 + VL6
B2: 224-Hu7 (antibody, V domains shown)
VH: QVQLVQSGSELKKPGASVKVSCKASGFNNKDIYMHWVRQAPGQGLEWMGRIDPATGNTKHDPKFQDKAVLSSDTSVSTAYLQISSLKAEDTAVYYCARSPYGDFGAMDYWGQGTLVTVSS
VL: B1 VL with W48L
notes: Humanized form of #224; also called VH9 + VL10
B3: 224-Hu4 (antibody, V domains shown)
VH: B2 VH
VL: B1 VL
notes: Humanized form of #224; also called VH9 + VL6
B4: 224-Hu5 (antibody, V domains shown)
VH: B2 VH
VL: B1 VL with W48L, F72Y, T73S
notes: Humanized form of #224; also called VH9 + VL9
B5: 224-Hu6 (antibody, V domains shown)
VH: B1 VH
VL: B1 VL with K43S, A44S
notes: Humanized form of #224; also called VH8 + VL7
B6: 224-Hu2 (antibody, V domains shown)
VH: B2 VH
VL: B1 VL with K43S, A44S
notes: Humanized form of #224; also called VH9 + VL7
B7: 224-Hu3 (antibody, V domains shown)
VH: B2 VH
VL: B1 VL with W48L, P81A, F84A
notes: Humanized form of #224; also called VH9 + VL8

Substitutions are numbered along the chain they refer to.

In the first assay the target is T1, human TNFR2 on the surface of CHO-TNFR2 cells (human, UniProt P20333 23-461).
T1 construct: whole, on cells
T1 sequence (looked up): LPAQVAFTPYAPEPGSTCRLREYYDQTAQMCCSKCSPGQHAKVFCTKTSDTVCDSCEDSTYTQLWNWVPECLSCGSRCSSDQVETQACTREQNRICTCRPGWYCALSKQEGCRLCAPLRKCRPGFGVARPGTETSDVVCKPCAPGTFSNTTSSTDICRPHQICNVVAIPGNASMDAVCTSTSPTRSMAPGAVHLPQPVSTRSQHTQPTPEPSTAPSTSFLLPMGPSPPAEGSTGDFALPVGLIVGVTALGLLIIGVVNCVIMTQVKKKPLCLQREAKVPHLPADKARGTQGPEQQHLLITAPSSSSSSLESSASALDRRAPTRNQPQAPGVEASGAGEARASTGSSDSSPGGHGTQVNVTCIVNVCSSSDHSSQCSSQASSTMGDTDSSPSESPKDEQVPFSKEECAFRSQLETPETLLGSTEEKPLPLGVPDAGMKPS
In words: flow cytometry on CHO-TNFR2 cells; area under the MFI fold curve. The procedure: The transfected full-length plasmid of human TNFR2 was purchased from Sino Biological (Cat #HG10417-UT, NCBI Ref Seq: NM_001066.2). The experiment was conducted at a cell density within 80%. The cell medium was discarded; the cells were rinsed with PBS, and digested with 1 ml trypsin for 2 minutes; the digestion was stopped with a Ham's F12 complete medium containing 10% FBS, and then a cell suspension was made. The cell suspension was counted, and then an appropriate amount of cell suspension was centrifuged at 350×g; the supernatant was discarded; a corresponding volume of blocking solution (10% FBS+PBS) at a density of 1×10⁷ cells/ml was added to resuspend the cells, and the mixture was incubated at 4° C. for 30 minutes. After the incubation, the mixture was centrifuged at 350×g to remove the supernatant, and the cells were resuspended in a staining buffer (2% FBS+PBS) to a density of 2×10⁶ cells/ml, and spread onto a 96-well plate, with 50 μl of cell suspension added to each well for later use. The antibody was diluted with PBS for 10-fold gradient dilution from the highest concentration of 20 μg/m (twice the concentration); the diluted antibody was added to the well containing 50 μl of cell suspension, and placed on a microplate shaker for shaking at 500 rpm for 1 minute, so that the antibody was fully mixed with the cells; the mixture was incubated at 4° C. for 1 h. After the incubation, the cells were washed twice with the staining buffer, with 100 μl per well, and centrifuged at 350-g for 5 minutes, and the supernatant was discarded. The PE goat anti-Human IgG Fc antibody (ebioscience, Cat #12-4998-82) was diluted 250-fold with the staining buffer, with a volume of 100 μl per well added to the washed cell wells; the mixture was mixed evenly, and stained at 4° C. for 30 minutes. After the staining, similarly, the cells were washed twice with the staining buffer; finally, the cells were resuspended in 200 μl of staining buffer; signals were detected by a flow cytometer (Thermo Attune NxT). The stronger the signal, the stronger the binding ability of an antibody to TNFR2. The binding curve of an antibody was drawn with antibody concentration as the abscissa and corresponding mean fluorescence intensity (MFI) fold as the ordinate, and fitted with four parameters (GraphPad Prism9) to calculate the EC50 value.
For the molecule B1, the AUC was 642.

Turning to B2, the AUC is 608.

With B3, the AUC worked out at 621.

B4 had an AUC of 593.

On to B5, for which the AUC came out at 603.

B6 registered an AUC of 672.

For the molecule B7, the AUC stood at 675.

The next assay deals with T1, human TNFR2 on the surface of CHO-TNFR2 …. The experiment in a line: competition flow cytometry on CHO-TNFR2 cells, competitor human TNFα-biotin. The procedure:
CHO stable cells highly expressing human TNFR2 were used for the experiment (the same as CHO-TNFR2 in Example 4). The CHO-TNFR2 cells were digested, washed twice with DPBS, then stained with Live/Dead (L/D) (20 minutes at room temperature), and plated at a density of 1×10⁵ cells/50 μl/well. A test anti-TNFR2 antibody was diluted to 6 μg/ml with a staining buffer as the starting concentration: the antibody was subjected to 3.33-fold gradient dilution, with a total of 7 concentration points. The diluted antibody was added to the plated cells at 50 μl/well, and the mixture was mixed well by gentle pipetting, and incubated at 4° C. for 30 minutes. Then the diluted 100 ng/ml of human TNFα-biotin was added at 100 μl/well, and the mixture was mixed well by gentle pipetting, and then incubated at 4° C. for 30 minutes. The mixture was washed twice with a staining buffer, and then 0.12 μg/ml PE-streptavidin (BioLegend, Cat #405204) was added at 100 μl/well; the resulting mixture was incubated at 4° C. for 30 minutes. The mixture was washed twice with a staining buffer, and then 150 μl of staining buffer was added to resuspend the cells; signals were detected by a flow cytometer (Thermo Attune NxT). The inhibitory curve of an antibody was drawn with antibody concentration as the abscissa and corresponding MFI value as the ordinate, and fitted with four parameters (GraphPad Prism9) to calculate the IC50 value. The smaller the IC50 value, the stronger the ability of an antibody to inhibit the binding of human TNFα to human TNFR2. The blocking effect of a humanized antibody was normalized to its corresponding human-murine chimeric WT antibody. The higher the percentage value, the better the inhibitory effect of the humanized antibody.
In general terms: In flow cytometry, cells or beads pass a laser one at a time.
In general, IC50 refers to the concentration that gives 50% inhibition. High values mean weaker potency in that assay, low ones greater potency in that assay. As for B1, the IC50 was found to be 0.042 µg/mL.

Molecule B2 returned an IC50 of 0.065 µg/mL. Against the preceding molecule, the IC50 is about 1.5-fold higher.

In turn, B3 had a half-maximal inhibitory concentration (IC50) of 0.058 µg/mL.

B4 showed an IC50 of 0.062 µg/mL.

In turn, B5 gave an IC50 of 0.061 µg/mL.

With B6, the IC50 is 0.036 µg/mL.

With B7, the IC50 came to 0.044 µg/mL. The IC50 values of the last two molecules are within 1.5-fold of each other.
